Measured values published in patent publication US20220048947A1 (NANOTAG BIOTECHNOLOGIES, published 2022).
Where a chain is given by its changes, count along the chain named. Where no end group is shown, it is not given here.

B1: MSGLEQELRRRLTPs (SEQ ID NO: 110) (peptide)
peptide: MSGLEQELRRRLTPS
modifications: not fully specified (residue 15); printed as MSGLEQELRRRLTPs
notes: Tag variant tested inside a fusion protein, position N
B2: NbALFA^ST (NbALFA clone 1G5) (VHH)
VHH: EVQLQESGGGLVQPGGSLRLSCTASGVTISALNAMAMGWYRQAPGERRVMVAAVSERGNAMYRESVQGRFTVTRDFTNKMVSLQMDNLKPEDTAVYYCHVLEDRVDSFHDYWGQGTQVTVSS
notes: Alpaca single-domain antibody; also called ALFA Selector^ST (immobilised on agarose resin); FluoTag-X2 anti-ALFA (coupled to AbberiorStar635P or IRDye800CW)
B3: NbALFA^ST-mScarlet-I (VHH)
VHH: B2 VHH
notes: Intrabody fusion expressed in COS-7 cells; also called pNT1004
B4: NbALFA^PE (VHH)
VHH: B2 VHH with R47E, E56S
notes: Weaker mutant of NbALFA^ST made by rational mutagenesis from the crystal structure; used on agarose (ALFA Selector^PE) or in solution (MST); also called NbALFA^PE mutant; ALFA Selector^PE (immobilised on agarose resin)
B5: gPSRLEEELRRRLTA. (SEQ ID NO: 19) (peptide)
peptide: GPSRLEEELRRRLTA
notes: Tag variant tested inside a fusion protein, position C
B6: grSRLEEELRRRLTA. (SEQ ID NO: 08) (peptide)
peptide: GRSRLEEELRRRLTA
notes: as for B5
B7: gpSRLEEELRRRLTE. (SEQ ID NO: 28) (peptide)
peptide: GPSRLEEELRRRLTE
notes: as for B5
B8: gPSRLEEELRRRLT. (SEQ ID NO: 18) (peptide)
peptide: GPSRLEEELRRRLT
notes: as for B5
B9: MsSRLEEELRRRLTEp (SEQ ID NO: 30) (peptide)
peptide: MSSRLEEELRRRLTEP
modifications: not fully specified (residues 2, 16); printed as MsSRLEEELRRRLTEp
notes: as for B1
B10: spSRLEEELRRRLDAp (SEQ ID NO: 12) (peptide)
peptide: SPSRLEEELRRRLDAP
modifications: not fully specified (residues 1, 2, 16); printed as spSRLEEELRRRLDAp
notes: Tag variant tested inside a fusion protein, position M
B11: spSRLEEELRRRLTEp (SEQ ID NO: 15) (peptide)
peptide: SPSRLEEELRRRLTEP
notes: as for B10
B12: spSGLEQELRRRLEAp (SEQ ID NO: 24) (peptide)
peptide: SPSGLEQELRRRLEAP
notes: as for B10
B13: spSRLEEELRRRLTAp (SEQ ID NO: 11) (peptide)
peptide: SPSRLEEELRRRLTAP
notes: as for B10
B14: spSGLEQELRRRLDAp (SEQ ID NO: 23) (peptide)
peptide: SPSGLEQELRRRLDAP
notes: as for B10
B15: spSGLEQELRRRLTEp (SEQ ID NO: 25) (peptide)
peptide: SPSGLEQELRRRLTEP
notes: as for B10
B16: spSRLEEELRRRLTDp (SEQ ID NO: 14) (peptide)
peptide: SPSRLEEELRRRLTDP
notes: as for B10
B17: spSRLEEELRRRLEAp (SEQ ID NO: 13) (peptide)
peptide: SPSRLEEELRRRLEAP
notes: as for B10
B18: gPSRLEEELRRRLTAa. (SEQ ID NO: 20) (peptide)
peptide: GPSRLEEELRRRLTAA
notes: as for B5
B19: spSGLEQELRRRLTAp (SEQ ID NO: 22) (peptide)
peptide: SPSGLEQELRRRLTAP
notes: as for B10
B20: gpSRLEEELRRRLTEp. (SEQ ID NO: 27) (peptide)
peptide: GPSRLEEELRRRLTEP
notes: as for B5
B21: spSGLEEELRRRLTEp (SEQ ID NO: 17) (peptide)
peptide: SPSGLEEELRRRLTEP
notes: as for B10
B22: gpSRLEEELRRRLTAp. (SEQ ID NO: 26) (peptide)
peptide: GPSRLEEELRRRLTAP
notes: as for B5
B23: psTRLEEELRRRLTAp (SEQ ID NO: 10) (peptide)
peptide: PSTRLEEELRRRLTAP
notes: as for B10
B24: spSRLEEELRRRLTAdp (SEQ ID NO: 16) (peptide)
peptide: SPSRLEEELRRRLTADP
notes: as for B10
B25: gPSRLEEELRRRLTAas. (SEQ ID NO: 21) (peptide)
peptide: GPSRLEEELRRRLTAAS
notes: as for B5
B26: pSRLEEELRRRLTE (SEQ ID NO: 7) (peptide)
peptide: PSRLEEELRRRLTE
notes: Tag tested inside a fusion protein, position C; also called ALFA^ST tag (C-terminal)
B27: MSRLEEELRRRLTEp (SEQ ID NO: 29) (peptide)
peptide: MSRLEEELRRRLTEP
notes: as for B1
B28: pSRLEEELRRRLTEp (SEQ ID NO: 6) (peptide)
peptide: PSRLEEELRRRLTEP
modifications: not fully specified (residues 1, 15); printed as pSRLEEELRRRLTEp
notes: Tag tested inside a fusion protein, position M; also called ALFA^ST tag (internal)
B29: pgSRLEEELRRRLTAp (SEQ ID NO: 09) (peptide)
peptide: PGSRLEEELRRRLTAP
notes: as for B10

How the values were obtained:
[1] = biological target: B2; experiment: peptide elution from NbALFA^ST resin; tag position N
[2] = biological target: T1, ALFA^ST peptide (Ac-PSRLEEELRRRLTEP-Amide); experiment: X-ray structure of the complex
T1 construct: also called free ALFA^ST peptide; ALFA peptide
T1 peptide: Ac-PSRLEEELRRRLTEP-NH2

[3] = biological target: maltose-binding protein (MBP) fused to multiple epitope tags (FLAG, HA, myc and ALFA^ST); experiment: dot blot, 2.7 nM nanobody or primary antibody
ALFA^ST-FLAG-Vimentin [4] = biological target: T2, ALFA^ST-FLAG-Vimentin (Mus musculus (Mouse), UniProt P20152 2-466); experiment: direct immunofluorescence on PFA-fixed COS-7 cells
T2 construct: Expressed in COS-7 cells; also called ALFA^ST-Vimentin; ALFA^ST-tagged Vimentin

ALFA^PE-FLAG-Vimentin = biological target: T3, ALFA^PE-FLAG-Vimentin (Mus musculus (Mouse), UniProt P20152 2-466); experiment: direct immunofluorescence on PFA-fixed COS-7 cells
T3 construct: Expressed in COS-7 cells; also called ALFA^PE-Vimentin; ALFA^PE-tagged Vimentin

YfgM (non-tagged) [5] = biological target: T4, YfgM (non-tagged) (E. coli, UniProt P76576 1-206); experiment: pull-down on ALFA Selector^ST from DDM lysate, Western blot
T4 construct: Control without tag; also called wild-type YfgM; untagged YfgM
T4 sequence: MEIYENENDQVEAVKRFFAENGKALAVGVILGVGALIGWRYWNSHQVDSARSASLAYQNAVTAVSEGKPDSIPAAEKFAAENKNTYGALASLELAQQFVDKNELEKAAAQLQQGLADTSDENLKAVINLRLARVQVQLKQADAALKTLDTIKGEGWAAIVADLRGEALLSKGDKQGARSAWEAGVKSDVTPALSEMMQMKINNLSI

PpiD [6] = biological target: T5, PpiD (E. coli, UniProt P0ADY1 1-623); experiment: as above
T5 sequence (looked up): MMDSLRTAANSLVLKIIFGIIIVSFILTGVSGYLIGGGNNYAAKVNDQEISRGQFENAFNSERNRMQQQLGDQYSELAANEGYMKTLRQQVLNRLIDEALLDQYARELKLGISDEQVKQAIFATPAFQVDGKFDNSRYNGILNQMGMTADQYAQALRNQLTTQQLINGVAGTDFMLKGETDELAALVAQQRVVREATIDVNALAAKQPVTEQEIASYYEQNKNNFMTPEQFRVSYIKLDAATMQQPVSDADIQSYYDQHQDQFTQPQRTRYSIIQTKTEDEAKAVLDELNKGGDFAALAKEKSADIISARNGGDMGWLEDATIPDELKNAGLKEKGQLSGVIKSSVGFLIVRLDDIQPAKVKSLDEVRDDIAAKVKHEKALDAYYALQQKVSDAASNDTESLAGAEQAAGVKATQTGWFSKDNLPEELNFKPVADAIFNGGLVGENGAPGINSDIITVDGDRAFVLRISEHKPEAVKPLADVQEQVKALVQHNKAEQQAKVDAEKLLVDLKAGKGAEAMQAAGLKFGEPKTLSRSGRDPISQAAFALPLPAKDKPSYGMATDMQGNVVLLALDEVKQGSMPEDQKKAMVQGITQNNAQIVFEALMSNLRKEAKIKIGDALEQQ

ALFA^ST-FLAG-Vimentin [7] = biological target: T2, ALFA^ST-FLAG-Vimentin; experiment: intrabody co-expression in COS-7 cells, fluorescence microscopy
YfgM (non-tagged) [8] = biological target: T4, YfgM (non-tagged); experiment: pull-down on ALFA Selector^PE from DDM lysate, Western blot
PpiD [9] = biological target: T5, PpiD; experiment: as above
[10] = biological target: B2; experiment: peptide elution from NbALFA^ST resin; tag position C
[11] = biological target: B2; experiment: peptide elution from NbALFA^ST resin; tag position M

T2 sequence (P20152 other isoform, or with tags, fused parts or gaps): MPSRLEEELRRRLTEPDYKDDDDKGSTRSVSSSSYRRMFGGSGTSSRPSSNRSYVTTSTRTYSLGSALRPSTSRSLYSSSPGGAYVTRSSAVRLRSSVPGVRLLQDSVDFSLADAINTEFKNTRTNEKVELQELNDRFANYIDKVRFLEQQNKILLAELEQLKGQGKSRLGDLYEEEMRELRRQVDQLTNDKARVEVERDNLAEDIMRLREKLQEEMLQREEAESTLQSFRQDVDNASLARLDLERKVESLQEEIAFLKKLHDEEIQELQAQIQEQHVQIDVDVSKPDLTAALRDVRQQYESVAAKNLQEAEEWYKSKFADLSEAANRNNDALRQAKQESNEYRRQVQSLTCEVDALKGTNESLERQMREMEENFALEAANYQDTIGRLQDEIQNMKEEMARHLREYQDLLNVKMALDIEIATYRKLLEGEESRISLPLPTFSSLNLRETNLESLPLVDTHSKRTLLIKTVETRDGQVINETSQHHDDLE
T3 sequence (P20152 other isoform, or with tags, fused parts or gaps): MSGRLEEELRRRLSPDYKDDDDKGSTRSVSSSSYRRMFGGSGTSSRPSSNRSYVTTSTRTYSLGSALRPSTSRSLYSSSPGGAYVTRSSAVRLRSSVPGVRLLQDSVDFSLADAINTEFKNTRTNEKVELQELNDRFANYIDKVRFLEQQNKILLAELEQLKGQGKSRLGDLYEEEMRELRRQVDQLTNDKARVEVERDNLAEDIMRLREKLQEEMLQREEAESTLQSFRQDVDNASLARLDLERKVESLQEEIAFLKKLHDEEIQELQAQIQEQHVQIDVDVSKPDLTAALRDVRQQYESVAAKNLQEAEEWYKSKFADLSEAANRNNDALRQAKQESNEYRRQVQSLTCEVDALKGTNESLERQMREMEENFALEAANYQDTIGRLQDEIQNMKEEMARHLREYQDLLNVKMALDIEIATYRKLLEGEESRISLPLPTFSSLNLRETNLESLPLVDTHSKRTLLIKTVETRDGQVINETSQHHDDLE

| Binder | t1/2 [10] [h] | t1/2 [11] [h] | further results |
| --- | --- | --- | --- |
| B1 | – | – | t1/2 [1]: < 0.0333 h |
| B2 | – | – | binding result [2]: binds; fold lower detection limit against all other epitope tags [3]: ~10 fold; binding result (ALFA^ST-FLAG-Vimentin [4]): binds; binding result (ALFA^PE-FLAG-Vimentin): binds; binding result (YfgM (non-tagged) [5]): no binding; binding result (PpiD [6]): no binding |
| B3 | – | – | binding result (ALFA^ST-FLAG-Vimentin [7]): binds |
| B4 | – | – | binding result (YfgM (non-tagged) [8]): no binding; binding result (PpiD [9]): no binding |
| B5 | > 1.67 | – | – |
| B6 | > 1.67 | – | – |
| B7 | > 1.67 | – | – |
| B8 | > 1.67 | – | – |
| B9 | – | – | t1/2 [1]: > 1.67 h |
| B10 | – | > 1.67 | – |
| B11 | – | > 1.67 | – |
| B12 | – | > 1.67 | – |
| B13 | – | > 1.67 | – |
| B14 | – | > 1.67 | – |
| B15 | – | > 1.67 | – |
| B16 | – | > 1.67 | – |
| B17 | – | > 1.67 | – |
| B18 | > 1.67 | – | – |
| B19 | – | > 1.67 | – |
| B20 | > 1.67 | – | – |
| B21 | – | > 1.67 | – |
| B22 | > 1.67 | – | – |
| B23 | – | > 1.67 | – |
| B24 | – | > 1.67 | – |
| B25 | > 1.67 | – | – |
| B26 | > 1.67 | – | – |
| B27 | – | – | t1/2 [1]: > 1.67 h |
| B28 | – | > 1.67 | – |
| B29 | – | > 1.67 | – |
